Results: PMC7055300, “Theileria parasites subvert E2F signaling to stimulate leukocyte proliferation” (Scientific Reports, 2020)

Target: human Retinoblastoma-1 (RB) pocket domain (human) (UniProt P06400)
Experiment: SPR

Sequence of human Retinoblastoma-1 (RB) pocket domain (human) (P06400 373-771): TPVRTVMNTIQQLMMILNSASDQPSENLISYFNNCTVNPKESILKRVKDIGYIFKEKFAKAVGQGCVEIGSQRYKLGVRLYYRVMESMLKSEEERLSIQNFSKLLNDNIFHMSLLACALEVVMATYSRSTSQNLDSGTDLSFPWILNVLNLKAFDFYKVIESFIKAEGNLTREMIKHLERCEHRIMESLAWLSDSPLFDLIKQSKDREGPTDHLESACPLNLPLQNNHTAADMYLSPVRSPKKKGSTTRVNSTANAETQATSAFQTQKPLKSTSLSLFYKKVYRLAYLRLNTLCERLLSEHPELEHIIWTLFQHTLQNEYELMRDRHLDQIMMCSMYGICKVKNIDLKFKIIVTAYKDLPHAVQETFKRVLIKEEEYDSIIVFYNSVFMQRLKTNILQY

full-length, recombinant TpGcpE protein (TpMuguga_02g00667) (natural protein)
Kd: 18.7 nM
